Experimental data published in PMC314469, “Protein Interaction Networks by Proteome Peptide Scanning” (PLoS Biology, 2004).

T1: amphyphisin SH3 (AMPH_HUMAN), P49418
T1 chain: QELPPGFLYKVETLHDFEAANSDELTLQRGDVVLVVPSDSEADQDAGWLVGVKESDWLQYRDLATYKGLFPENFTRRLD


How the values were obtained:
[1] = molecular target: T1, amphyphisin SH3 (AMPH_HUMAN), P49418; experiment: SPOT array
[2] = molecular target: endophilin SH3 (SH3G2_HUMAN), Q99962; experiment: SPOT array

normalised SPOT signal, Boehringer light units (BLU); mean over the file's lines of this peptide [1] | normalised SPOT signal, Boehringer light units (BLU); mean over the file's lines of this peptide [2] | Binder
43.4 | 57.4 | GPSSPQKPPTPEET [P18887 443-457]
372 | 2350 | GSEPPRRPPPAPHD [P48634 1687-1701]
48.2 | 232 | GQDKPVKPPTKKSE [P20810 625-639]
51.3 | 706 | GSPAPKRPPDPFPG [O43593 424-437]
1370 | 5310 | GPPPPPRPPFGRPP [O14776 57-71]
125 | 1350 | GSGKPSRPSKPIVA [Q15598 1240-1253]
33.9 | 193 | GPGKPERPPPQGGD [P81489 112-126]
1710 | 13600 | GSQVPERPPKPFPR [P22681 815-829]
211 | 135 | GRDFLQRPGRQPQA [O75016 262-275]
33 | 55.2 | ALLEPRRPPHDYMP [Q99946 106-119]
66.4 | 486 | GQQLPPRPPQSSSV [O15027 229-243]
54.3 | 212 | GPYGPHRPPQPLPP [Q99687 39-53]
248 | 91.7 | GSESLSRPWRARAK [O94851 799-812]
42.9 | 93.3 | GQRRLRRPLILGLG [O75761 132-145]
69 | 129 | GRTPPARPPQDPAE [BAC05028 186-200]
39.3 | 2530 | GSEKPKRPVSAMFI [P17480 403-416]
4840 | 111 | GQLQPSRPTRARGT [Q14163 165-178]

The remaining lines, values behind:

Binder | normalised SPOT signal, Boehringer light units (BLU); mean over the file's lines of this peptide [1] | normalised SPOT signal, Boehringer light units (BLU); mean over the file's lines of this peptide [2]
GSQAPARPPKPRPR [Q13191 898-911] | 423 | 62500
GRAWLRRPHPRDVG [Q9H4N7 178-191] | 2.1 | 55.2
GRPRPRRPAQYPAR [Q9BTV6 2-15] | 73.1 | 649
ALLDPRRPEIPTEQ [Q9NUC1 730-743] | 26.1 | 36.9
GPSPPYRPEKLSSP [Q13495 380-393] | 243 | 684
GQSAPRRPSAGDGA [Q9P2C5 54-67] | 23.6 | 142
GSALPRRPLLSIPA [Q01974 4-17] | 36.4 | 2140
GRNDLKRPMQAPPG [Q9HD26 258-271] | 32.8 | 39.5
GSPEPKRPGVSEAA [Q9UN79 64-77] | 26.6 | 17.9
GQKQPKRPRSESSS [O00467 395-408] | 51.5 | 43.7
GSELPRRPLPPAAQ [P04818 4-17] | 40.1 | 70.6
GSGSPVRPPVSTWG [Q9NUB4 27-41] | 32.2 | 16.6
GPPSPRRPLVPAGP [O00268 106-119] | 20.9 | 2840
GQVILRRPLDYEKN [Q9NPG4 302-315] | 19.8 | 20.9
GPQRPRRPAKDAQP [Q12984 78-91] | 8400 | 10700
GQKLPRRPQPGPGE [Q9H8D9 660-673] | 14.9 | 43
GPLDLRRPMRTVPG [Q96SD2 167-180] | 1070 | 972
GREAPGRPPRAVPK [Q9ULI4 1050-1063] | 2140 | 19300
GPLGLRRPPSASSD [Q01167 591-604] | 11.4 | 116
GPILPKKPPVKPPT [Q9ULW0 414-428] | 44.6 | 1800
GPRPPPRPARHRSH [Q9P0U7 35-48] | 13100 | 28600
ALLTPHRPGRALSF [Q9NZK9 120-133] | 5440 | 491
ALLVPVKPPTAWEG [Q8TCB4 82-96] | 2.4 | 55.1
GPERPKRPGSLLAP [Q9HCE9 774-787] | 2440 | 12300
GRSALRRPWRKSGS [Q9BR44 22-35] | 531 | 160
